Our source for the Kd values is PMC3968096, “Discovering Aptamers by Cell-SELEX against Human Soluble Growth Factors Ectopically Expressed on Yeast Cell Surface”.

This data set addresses VEGF165 (soluble) (human, UniProt P15692-4 27-191). The experiment in a line: F-EMSA; 1 mM Mg2+; 10 mM HEPES pH 7.9, 125 mM NaCl, 25 mM KCl, 1 mM MgCl2; F-EMSA at room temperature for 2 h, 5% PAGE at 4 C; flow cytometry in the same buffer. The settings on record: protein: recombinant, chain copies: 2, label: 5' fluorescein (F-EMSA), 5' biotin (flow). For orientation: Mobility shift assays separate free from complexed probe on a gel.

Chain of VEGF165 (soluble) (P15692 other isoform, or with tags, fused parts or gaps): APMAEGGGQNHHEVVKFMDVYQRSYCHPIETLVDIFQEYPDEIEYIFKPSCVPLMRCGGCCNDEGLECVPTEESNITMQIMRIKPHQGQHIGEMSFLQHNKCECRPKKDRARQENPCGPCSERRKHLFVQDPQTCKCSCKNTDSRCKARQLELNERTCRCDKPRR

With TCTAGCCCACTGCATAGAGGTAGCCACGTATGTTCGTGGCTACCGGTG (structured_DNA) [hVap1_Stem], where the note is “two predicted stem-loops”, the equilibrium dissociation constant (Kd) (usually a measure of binding affinity in units of concentration) was 5.6 ± 0.3 nM.

B1: hVap1_T1979 (structured_DNA)
DNA: TCTAGCCCACTGCATAGAGGTAGCCACGTATGTGGGTGTTACCCATTCGTAGCTACCGGTG
For the molecule B1, for the setting “predicted stem-loops”, the Kd was 1.7 ± 0.1 nM. On to TCTAGCCCACTGCATAGAGGTAGCTACCGGTG (structured_DNA) [hVap1_SST], for which the Kd (stem-loop plus shortened second stem-loop) turned out to be 2.5 ± 0.2 nM.
